The experiment has as its target T1, BHP2 (pro-survival Bcl-2 homolog from Geodia cydonium), residues 18-200 (Geodia cydonium, UniProt Q967D2 18-200).
T1 construct: BHP2, Geodia cydonium, Uniprot Q967D2, residues 18-200; codon-optimized synthetic cDNA; also called recombinant BHP2; source: E. coli BL21 (DE3) star, purified (Glutathione Sepharose 4B, HRV 3C protease cleavage on column, Superdex S200 SEC)
T1 sequence (looked up): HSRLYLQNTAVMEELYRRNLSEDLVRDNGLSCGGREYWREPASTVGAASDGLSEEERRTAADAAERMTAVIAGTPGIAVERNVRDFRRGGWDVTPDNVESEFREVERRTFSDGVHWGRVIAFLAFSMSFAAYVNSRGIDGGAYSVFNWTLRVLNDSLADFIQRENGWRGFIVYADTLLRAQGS
As to the kind of experiment: ITC; BH3 peptide (200 μM) titrated into BHP2 (20 μM), 19 injections of 2.0 μl, MicroCal iTC200, 25 °C, 25 mM HEPES pH 7.5, 150 mM NaCl; triplicate. As to conditions: both partners purified. (In general: Isothermal titration calorimetry measures the heat released or taken up as one component is titrated into another.)

As usually defined, the Kd is the constant that tells how readily two partners part at equilibrium. Read a high Kd as lower affinity.

B1: human Hrk BH3 peptide (peptide)
chain: not shown
Take B1: the Kd worked out at 3760 nM.

B2: LB-Bak-2 BH3 peptide (residues 62-89) (peptide, UniProt Q1RPT5 62-89, looked up)
peptide: ALASSMASEVGRRLAEFGDQVDGQFYQE
notes: LB-Bak-2, Lubomirskia baicalensis, Uniprot Q1RPT5, BH3 motif, residues 62-89; also called LB-Bak-2 BH3 motif; LB-Bak-2 BH3 domain; source: synthetic peptide (GenScript), purified to 95%
Regarding B2, the Kd is 65 nM.
